Measured values taken from patent US20120135916A1 (SIEMENS HEALTHCARE DIAGNOSTICS, published 2012).
Bridge positions count the residues as written; N and C are the ends. Ends that are not written are not given here. I, II: the chains in the order shown.

biological target: insulin degradation enzyme (IDE) (UniProt P14735 42-1019, limits assumed); assay: cell-based or functional assay

| Binder | IDE Inhibition (90% inhibition at) [µg/mL] |
| --- | --- |
| HFHGVSNLQEFRFMIGGGCSEEDAL [R2 CTF25] | 9 |
| HFYGVSNLQEFRYGLEGGCTDDTLL [R1 CTF25] | 12.4 |
| R1 CTF25 R2 CTF25 heterodimer (disulfide I:19-II:19) peptide 1: HFYGVSNLQEFRYGLEGGCTDDTLL peptide 2: HFHGVSNLQEFRFMIGGGCSEEDAL | 0.6 |
| VVAGAFVHFHGVSNLQEFRFMIGGGCSEEDAL [R2 CTF32] | 40 |
| R1 CTF32 R2 CTF32 heterodimer (disulfide I:26-II:26) peptide 1: VVAAAFVHFYGVSNLQEFRYGLEGGCTDDTLL peptide 2: VVAGAFVHFHGVSNLQEFRFMIGGGCSEEDAL | 1.2 |
| VVAGAFVHFHGVSNLQEFRFMIGGGCSEEDAL (also: homodimer: inter-chain disulfide between Cys26 of both mer units) [R2 CTF32 R2 CTF32 homodimer] | 19 |
| VVAAAFVHFYGVSNLQEFRYGLEGGCTDDTLL (also: homodimer: inter-chain disulfide between Cys26 of both mer units) [R1 CTF32 R1 CTF32 homodimer] | 22.5 |
| VVAAAFVHFYGVSNLQEFRYGLEGGCTDDTLL [R1 CTF32] | 50 |
